According to patent publication US20100249029A1 (Novo Nordisk, published 2010):
Where a chain is given by its changes, count along the chain named. In names and notes the source's numbering stands. Values belong to the binder of their own block, whether it stands above or below them.

Legend:
[1] = molecular target: T1, Biotinylated prolactin receptor BirATag-Ser-PRLR (1-210) (human, UniProt P16471 25-234, biotinylated (BirA tag, biotin added during expression in E. coli)); test: SPR (Biacore); biotinylated BirATag-Ser-PRLR (1-210) amine-coupled to CM5 chip, variant injected at 3.13-50 nM; STDEV 0.56
T1 construct: range 1-210; also called BirA-Ser-PRLR (1-210); not shown: BirA tag (biotin acceptor tag)
T1 sequence: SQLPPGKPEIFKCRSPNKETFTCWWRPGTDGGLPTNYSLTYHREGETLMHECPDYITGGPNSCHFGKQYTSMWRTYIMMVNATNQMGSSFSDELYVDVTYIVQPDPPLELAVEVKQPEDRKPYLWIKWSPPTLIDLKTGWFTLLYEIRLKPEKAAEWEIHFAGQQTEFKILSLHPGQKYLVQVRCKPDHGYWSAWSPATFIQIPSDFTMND
Procedure: (§1) Biotinylated prolactin receptor BirATag-Ser-PRLR (1-210) was diluted to 20 μg/ml in 10 mM sodium acetate pH 4.0 (Biacore BR-1003-49) and immobilized on a CM5 chip (Biacore BR-1006-68) with the immobilization reagents 1-ethyl-3-(3-dimethylaminopropyl) carbodiimide hydrochloride (EDC), N-hydroxysuccinimide (NHS) and 1.0 M ethanolamine-HCl pH 8.5 (Biacore BR1000-50). The immobilization level was 1500 RU. The PRL variants prepared as described in Example 5 were diluted to a series of concentrations as following: 3.13/6.25/12.5/25/50 nM and run through the PRLR immobilized chip using HBS-EP (10 mM HEPES pH 7.4; 150 mM NaCl; 3 mM EDTA; 0.005% v/v Tween-20) as the running buffer under the following conditions: […]

[2] = molecular target: T1, Biotinylated prolactin receptor …; test: SPR (Biacore); biotinylated BirATag-Ser-PRLR (1-210) amine-coupled to CM5 chip, variant injected at 3.13-50 nM; STDEV 0.22
Procedure: as §1

[3] = molecular target: T1, Biotinylated prolactin receptor …; test: SPR (Biacore); biotinylated BirATag-Ser-PRLR (1-210) amine-coupled to CM5 chip, variant injected at 3.13-50 nM; STDEV 0.028
Procedure: as §1

[4] = molecular target: T1, Biotinylated prolactin receptor …; test: SPR (Biacore); biotinylated BirATag-Ser-PRLR (1-210) amine-coupled to CM5 chip, variant injected at 3.13-50 nM; STDEV 0.51
Procedure: as §1

Kd [1]: 4.9 nM
B1: Ser-PRL D68N, G129R (ligand)
chain: SLPICPGGAARCQVTLRDLFDRAVVLSHYIHNLSSEMFSEFDKRYTHGRGFITKAINSCHTSSLATPENKEQAQQMNQKDFLSLIVSILRSWNEPLYHLVTEVRGMQEAPEAILSKAVEIEEQTKRLLERMELIVSQVHPETKENEIYPVWSGLPSLQMADEESRLSAYYNLLHCLRRDSHKIDNYLKLLKCRIIHNNNC

Kd [2]: 2.8 nM
B2: Ser-PRL D68N, G129R, K190R (ligand)
chain: B1 chain with K191R

Kd [3]: 2.4 nM
B3: Ser-PRL S61A, G129R, K190R (ligand)
chain: B1 chain with S62A, N69D, K191R

Kd [4]: 3.3 nM
B4: Ser-PRL S33A, Q73L, M75T, N76S, F80L, G129R, K190R (ligand)
chain: B1 chain with S34A, N69D, Q74L, M76T, N77S, F81L, K191R
